Measurements published in IntAct's records for PubMed 27314904.

B1: Polyglutamine-binding protein 1 (Homo sapiens), O60828 (parent)
chain: MPLPVALQTRLAKRGILKHLEPEPEEEIIAEDYDDDPVDYEATRLEGLPPSWYKVFDPSCGLPYYWNADTDLVSWLSPHDPNSVVTKSAKKLRSSNADAEEKLDRSHDKSDRGHDKSDRSHEKLDRGHDKSDRGHDKSDRDRERGYDKVDRERERDRERDRDRGYDKADREEGKERRHHRREELAPYPKSKKAVSRKDEELDPMDPSSYSDAPRGTWSTGLPKRNEAKTGADTTAAGPLFQQRPYPSPGAVLRANAEASRTKQQD
B2: WW domain-binding protein 11 (Homo sapiens), Q9Y2W2 (parent)
chain: MGRRSTSSTKSGKFMNPTDQARKEARKRELKKNKKQRMMVRAAVLKMKDPKQIIRDMEKLDEMEFNPVQQPQLNEKVLKDKRKKLRETFERILRLYEKENPDIYKELRKLEVEYEQKRAQLSQYFDAVKNAQHVEVESIPLPDMPHAPSNILIQDIPLPGAQPPSILKKTSAYGPPTRAVSILPLLGHGVPRLPPGRKPPGPPPGPPPPQVVQMYGRKVGFALDLPPRRRDEDMLYSPELAQRGHDDDVSSTSEDDGYPEDMDQDKHDDSTDDSDTDKSDGESDGDEFVHRDNGERDNNEEKKSGLSVRFADMPGKSRKKKKNMKELTPLQAMMLRMAGQEIPEEGREVEEFSEDDDEDDSDDSEAEKQSQKQHKEESHSDGTSTASSQQQAPPQSVPPSQIQAPPMPGPPPLGPPPAPPLRPPGPPTGLPPGPPPGAPPFLRPPGMPGLRGPLPRLLPPGPPPGRPPGPPPGPPPGLPPGPPPRGPPPRLPPPAPPGIPPPRPGMMRPPLVPPLGPAPPGLFPPAPLPNPGVLSAPPNLIQRPKADDTSAATIEKKATATISAKPQITNPKAEITRFVPTALRVRRENKGATAAPQRKSEDDSAVPLAKAAPKSGPSVPVSVQTKDDVYEAFMKEMEGLL

Variants of: B1
Settings: with wbp11_human WBP11, Q9Y2W2

Variant	effect of a mutation on the interaction
V73A	decreasing interaction
Y65C	disrupting interaction
W75A	disrupting interaction
Y64A	disrupting interaction
W66A	disrupting interaction

Variants of: B2
Settings: with pqbp1_human PQBP1, O60828

Variant	effect of a mutation on the interaction
P459A;P460A;G461A	decreasing interaction

Variants of: B2
Settings: with pqbp1_human PQBP1, O60828
Remark: another data set of the same source

Variant	effect of a mutation on the interaction
P462A;P463A;P464A;G465A	disrupting interaction

Variants of: B2
Settings: with pqbp1_human PQBP1, O60828
Remark: another data set of the same source

Variant	effect of a mutation on the interaction
R466A;P467A;P468A;G469A	decreasing interaction

Variants of: B2
Settings: with pqbp1_human PQBP1, O60828
Remark: another data set of the same source

Variant	effect of a mutation on the interaction
P455A;R456A;L457A;L458A	decreasing interaction
